B1: Escherichia coli FrmR (EcFrmR) (natural protein, Escherichia coli K-12, UniProt P0AAP3 2-91, looked up)
chain: PSTPEEKKKVLTRVRRIRGQIDALERSLEGDAECRAILQQIAAVRGAANGLMAEVLESHIRETFDRNDCYSREVSQSVDDTIELVRAYLK
notes: FrmR, transcriptional repressor of the frmRAB operon, E. coli K-12; last residue Lys91; frmR amplified from E. coli K12 genomic DNA and ligated into pET22b at NdeI and NcoI; no tag is mentioned and the measured mass fits the untagged protein without Met1; source: E. coli expression strains (JRG6782, 6783 and 6784), frmR in pET22b, purified (Heparin-HP, HiLoad Superdex 200)
B2: EcFrmR(P2A) (natural protein, Escherichia coli K-12, UniProt P0AAP3 2-91, looked up)
chain: ASTPEEKKKVLTRVRRIRGQIDALERSLEGDAECRAILQQIAAVRGAANGLMAEVLESHIRETFDRNDCYSREVSQSVDDTIELVRAYLK
notes: FrmR, E. coli K-12, with P2A; Mutation made by overlap PCR or Quikchange; also called P2A variant; source: E. coli expression strains (JRG6782, 6783 and 6784), purified (Heparin-HP, HiLoad Superdex 200)
B3: EcFrmR(C35A) (natural protein, Escherichia coli K-12, UniProt P0AAP3 2-91, looked up)
chain: PSTPEEKKKVLTRVRRIRGQIDALERSLEGDAEARAILQQIAAVRGAANGLMAEVLESHIRETFDRNDCYSREVSQSVDDTIELVRAYLK
notes: FrmR, E. coli K-12, with C35A; Mutation made by overlap PCR or Quikchange; also called C35A variant; source: E. coli expression strains (JRG6782, 6783 and 6784), purified (Heparin-HP, HiLoad Superdex 200)

Biological target: the molecule itself
Experiment: SEC; calibrated size exclusion chromatography column; elution volume compared with standards

Stoichiometry N, 4:
B1, B2, B3

Reference: publication PMC5146963, “The mechanism of a formaldehyde-sensing transcriptional regulator” (Scientific Reports, 2016)
